Assay results published in patent publication US20230365641A1 (XILIO DEVELOPMENT, published 2023).
Like-named read-outs stand apart in the source and are kept apart here.

How the values were obtained:
[1] = target: T1, PD-1 (antigen of the ELISA and of the in vitro affinity measurement) (UniProt Q15116 25-167, limits assumed); experiment: ELISA
[2] = target: T1, PD-1 (antigen of the ELISA and of the …); experiment: ELISA on PD-1
[3] = target: T1, PD-1 (antigen of the ELISA and of the …); experiment: ELISA on PD-1; remark: listed apart in the source
[4] = target: T1, PD-1 (antigen of the ELISA and of the …); experiment: ELISA on PD-1; remark: listed apart in the source
[5] = target: T1, PD-1 (antigen of the ELISA and of the …); experiment: ELISA on PD-1; remark: listed apart in the source
[6] = target: T2, PD-1 shown on cells (Raji-PD-1 cells); CD3/CD28 activated human CD8+ T cells; PD-1 effector cells of the … (human, UniProt Q15116 25-288); experiment: cell-based or functional assay
[7] = target: T2, PD-1 shown on cells (Raji-PD-1 cells; …); experiment: cell-based or functional assay; remark: listed apart in the source
[8] = target: T2, PD-1 shown on cells (Raji-PD-1 cells; …); experiment: cell-based or functional assay; remark: listed apart in the source
[9] = target: T2, PD-1 shown on cells (Raji-PD-1 cells; …); experiment: flow cytometry, on-cell binding to PD-1 expressing Raji cells, anti-human IgG-PE
[10] = target: T2, PD-1 shown on cells (Raji-PD-1 cells; …); experiment: as above; remark: listed apart in the source
[11] = target: T2, PD-1 shown on cells (Raji-PD-1 cells; …); experiment: as above; remark: listed apart in the source
[12] = target: T2, PD-1 shown on cells (Raji-PD-1 cells; …); experiment: flow cytometry on CD3+CD8+ T cells within CD3/CD28 activated human PBMCs, 1 h at 4 C, anti-human IgG PE, % anti-hIgG+; table CD8+ T cells under the graph
Method: Mixed donor lots of human peripheral blood mononuclear cells (PBMCs) were thawed and seeded in medium (RPMI1640, 10% fetal bovine serum (FBS), 2 mM 1-Glutamine, 50 U/mL penicillin, 50 μg/mL streptomycin, 1 μM each of non-essential amino acids, 10 mM HEPES, 1 mM sodium pyruvate, 55 μM B-mercaptoethanol, 10 μg/mL gentamycin) into tissue culture treated plates that were coated for 1 h at 37° C. with 1 μg/ml anti-CD3. Anti-CD28 was added in solution at a concentration of 5 μg/ml. Two days later the PBMCs were collected and transferred into a 96 well v-bottom plate at 100,000 cells per well in FACS Buffer (2% FBS in phosphate buffered saline (PBS)). Test articles were diluted to twice the indicated concentration in FACS buffer. Test articles were added to cells at a 1:1 ratio to the final concentration indicated in the figure and incubated for 1 h at 4° C. The cells were washed three times with FACS buffer and fixed in 4% PFA. Cells were then washed once in FACS buffer. All cells were stained in 100 μL of indicated molecules in FACS buffer for 1 h at 4° C. The cells were washed three times with FACS buffer and fixed in 4% paraformaldehyde (PFA). All cells were subsequently stained in 100 μL with anti-human IgG PE, anti-CD3 PE/Dazzle 594, anti-CD45 PerCP Cy5.5, anti-CD8 BV510, and anti-CD4 BV421 for 30 minutes. Cells were washed twice to remove unbound antibody and analyzed on the BD Celesta by gating on CD3+CD8+ T cells.

T1 sequence (Q15116 25-167 limits assumed): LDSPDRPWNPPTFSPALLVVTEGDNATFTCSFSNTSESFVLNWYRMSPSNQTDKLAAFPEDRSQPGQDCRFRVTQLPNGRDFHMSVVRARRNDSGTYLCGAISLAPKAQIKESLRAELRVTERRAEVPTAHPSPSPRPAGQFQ
T2 sequence (Q15116 25-288): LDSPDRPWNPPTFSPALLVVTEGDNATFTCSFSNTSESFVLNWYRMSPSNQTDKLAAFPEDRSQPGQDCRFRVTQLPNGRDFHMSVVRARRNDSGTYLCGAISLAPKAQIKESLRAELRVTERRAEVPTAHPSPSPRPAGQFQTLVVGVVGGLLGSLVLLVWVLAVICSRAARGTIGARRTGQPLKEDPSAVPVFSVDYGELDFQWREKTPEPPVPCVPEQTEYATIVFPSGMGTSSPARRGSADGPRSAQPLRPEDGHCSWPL

B1: TC46 (Fc fusion)
heavy 1: QVQLVQSGVEVKKPGASVKVSCKASGYTFTNYYMYWVRQAPGQGLEWMGGINPSNGGTNFNEKFKNRVTLTTDSSTTTAYMELKSLQFDDTAVYYCARRDYRFDMGFDYWGQGTTVTVSSASTKGPSVFPLAPSSKSTSGGTAALGCLVKDYFPEPVTVSWNSGALTSGVHTFPAVLQSSGLYSLSSVVTVPSSSLGTQTYICNVNHKPSNTKVDKKVEPKSCDKTHTCPPCPAPELLGGPSVFLFPPKPKDTLMISRTPEVTCVVVDVSHEDPEVKFNWYVDGVEVHNAKTKPREEQYASTYRVVSVLTVLHQDWLNGKEYKCKVSNKALPAPIEKTISKAKGQPREPQVYTLPPCRDELTKNQVSLWCLVKGFYPSDIAVEWESNGQPENNYKTTPPVLDSDGSFFLYSKLTVDKSRWQQGNVFSCSVMHEALHNRFTQKSLSLSPGGGSSPPGGGSSGGGSGPAPTSSSTKKTQLQLEHLLLDLQMILNGINNYKNPKLTAMLTAKFAMPKKATELKHLQCLEEALKPLEEVLNLAQSKNFHLRPRDLISNINVIVLELKGSETTFMCEYADETATIVEFLNRWITFAQSIISTLT
heavy 2: QVQLVQSGVEVKKPGASVKVSCKASGYTFTNYYMYWVRQAPGQGLEWMGGINPSNGGTNFNEKFKNRVTLTTDSSTTTAYMELKSLQFDDTAVYYCARRDYRFDMGFDYWGQGTTVTVSSASTKGPSVFPLAPSSKSTSGGTAALGCLVKDYFPEPVTVSWNSGALTSGVHTFPAVLQSSGLYSLSSVVTVPSSSLGTQTYICNVNHKPSNTKVDKKVEPKSCDKTHTCPPCPAPELLGGPSVFLFPPKPKDTLMISRTPEVTCVVVDVSHEDPEVKFNWYVDGVEVHNAKTKPREEQYASTYRVVSVLTVLHQDWLNGKEYKCKVSNKALPAPIEKTISKAKGQPREPQVCTLPPSRDELTKNQVSLSCAVKGFYPSDIAVEWESNGQPENNYKTTPPVLDSDGSFFLVSKLTVDKSRWQQGNVFSCSVMHEALHNHYTQKSLSLSPGGPPSGSSPMPYDLYHPSGGGAVNGTSQFTCFYNSRANISCVWSQDGALQDTSCQVHAWPDRRRWNQTCELLPVSQASWACNLILGAPDSQKLTTVDIVTLRVLCREGVRWRVMAIQDFKPFENLRLMAPISLQVVHVETHRACISWEISQASHYFERHLEFEARTLSPGHTWEEAPLLTLKQKQEWICLETLTPDTQYEFQVRVKPLQGEFTTWSPWSQPLAFRTKPAALGKD
light: EIVLTQSPATLSLSPGERATLSCRASKGVSTSGYSYLHWYQQKPGQAPRLLIYLASYLESGVPARFSGSGSGTDFTLTISSLEPEDFAVYYCQHSRDLPLTFGGGTKVEIKRTVAAPSVFIFPPSDEQLKSGTASVVCLLNNFYPREAKVQWKVDNALQSGNSQESVTEQDSKDSTYSLSSTLTLSKADYEKHKVYACEVTHQGLSSPVTKSFNRGEC
notes: Mask CD122 (C122A, N123C); also called PembroFab-IgG1 (N297A, MST, RF)-CD122*
Kd [1]: 0.33 nM | EC50 (read off the curve) [2]: ~0.2 nM | EC50 (read off the curve) [3]: ~0.2 nM | EC50 (read off the curve) [4]: ~0.2 nM | Kd [5]: 0.18 nM | EC50 (read off the curve) [6]: ~1 nM | EC50, PD-1/PD-L1 blockade RGA (NFAT fold induction) [7]: 1.34 nM | EC50, PD-1/PD-L1 blockade RGA (NFAT fold induction) [8]: 1.47 nM | EC50 (read off the curve) [9]: ~0.7 nM | EC50 (read off the curve) [10]: ~0.7 nM | EC50 [11]: 0.8 nM | EC50 [12]: 0.09 nM
